From publication PMC4986892 (RNA, 2016) come the findings set out here.

In assay [1] the target is T1, S. pombe Dcp1:Dcp2RD decapping complex (S. pombe, UniProt Q9P805;O13828).
T1 sequence 1: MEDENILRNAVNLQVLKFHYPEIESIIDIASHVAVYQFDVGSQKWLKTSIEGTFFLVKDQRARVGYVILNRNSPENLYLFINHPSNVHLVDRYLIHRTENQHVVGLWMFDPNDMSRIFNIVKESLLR
T1 sequence 2: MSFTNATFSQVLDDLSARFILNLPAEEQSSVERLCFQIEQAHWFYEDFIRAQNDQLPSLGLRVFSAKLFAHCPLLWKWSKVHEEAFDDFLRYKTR
The experiment in a line: NMR titration.

Assay [2] deals with T2, S. pombe Dcp1 (S. pombe, UniProt Q9P805).
T2 sequence: T1 sequence 1
The experiment in a line: NMR titration.

For assay [3], the target named is T3, S. pombe Dcp1:Dcp2_(RD+CD) decapping complex (S. pombe, UniProt Q9P805;O13828).
T3 sequence 1: T1 sequence 1
T3 sequence 2: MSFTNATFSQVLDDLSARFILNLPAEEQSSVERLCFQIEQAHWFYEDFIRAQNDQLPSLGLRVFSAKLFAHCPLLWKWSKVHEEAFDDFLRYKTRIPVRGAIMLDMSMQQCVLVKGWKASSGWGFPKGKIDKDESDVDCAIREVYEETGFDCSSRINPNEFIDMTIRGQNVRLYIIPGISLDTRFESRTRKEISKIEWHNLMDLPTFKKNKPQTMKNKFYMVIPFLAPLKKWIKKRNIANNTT
The experiment in a line: fluorescence polarisation. (In general: Fluorescence polarisation rises when a labelled molecule tumbles more slowly, as on binding a larger partner.)

The target of assay [4] is T1, S. pombe Dcp1:Dcp2RD decapping complex. As to the kind of experiment: NMR titration. This is another data set of the same source.
Assay [5] shares this target. The experiment in a line: fluorescence polarisation.

The term Kd denotes the free concentration of one partner at which half of the binding sites on the other are occupied at equilibrium, for simple one-to-one binding. Low readings indicate a tighter complex, high ones a looser complex.

With VSQGTDSRLVTKPTSTFPSPPSPPSSSVWNKREH [S. pombe Xrn1 (1224–1257)], the Kd in assay [1] was 640 ± 170 µM.

B1: S. pombe Dcp2 C-terminal tail (267–350) (domain or fragment)
chain: STAPSDLATPQPSTFPQPPVESHSSFDIKQKILHLLNEGNEPKSPIQLPPVSNLPLNPPIQSSNSRLSHDNNSFDPFAYLGLDP
On to B1, for which the binding result in assay [2] was “binds”.

B2: S. pombe Edc1 (144–215) (domain or fragment)
chain: SFSSNSSSDTNSILYAGPTFTHSPAASNLPIPTFLHSPVSEKAEWQPPTGSVNSNMPFQFHQSSSVPSTPSE
Consider B2, for which the affinity in assay [3], expressed as Kd, was 0.415 µM.

B3: S. pombe Xrn1 (1201–1328) (domain or fragment)
chain: TNPQFVVNTRAGKNRKTNVSANNVSQGTDSRLVTKPTSTFPSPPSPPSSSVWNKREHHPKPFSLHQVPPPESLIHKSKSKFSKGNHHSTNGTQSIRGRGGKRGKPLRSKELNRKHDHIVQPMGKLQIN
Take B3: the binding result in assay [4] was “binds”.

APSDLATPQPSTFPQPPVESHSSFDIKQKILHLLNEGNEPKSPI (domain or fragment) [S. pombe Dcp2 C-terminal region (269–312)] returned a Kd in assay [1] of 310 ± 110 µM.

B4: Fluorescently labeled S. pombe Edc1 1–221 (S183C) (domain or fragment)
chain: MQKDIGRRFQRNKKKINSKPGGAMVASSDVEFSLDGMSIMPQRDGNLQIPNFVKPKSTFATSNIGESNGKRNGDKVRGNRRSKSGHSSYAGSRISGGNSNSHLPSGVASAPAGLGIDKVAVGEVDSHLKSVSSYVSNSSGADRSFSSNSSSDTNSILYAGPTFTHSPAASNLPIPTFLHSPVCEKAEWQPPTGSVNSNMPFQFHQSSSVPSTPSEVAMGHN
modifications: 5-(iodoacetamido)-fluorescein on the cysteine introduced by S183C (labeling efficiency ~50%)
For B4, the Kd in assay [5] was 0.143 µM; in assay [3] it was 0.25 µM.

As to GTEIQPIPPSIDPSLYVFP [S. pombe Dhh1 (401–419)], in assay [4], the binding result is “binds”.

SFSSNSSSDTNSILYAGPTFTHSPAASNLPIPTFLHSP [S. pombe Edc1 (144–181), as used for NMR]: the binding result in assay [4] is reported as “binds”.
